Where two headings read alike, the source gives them in different places.
Experiments:
[1] = biological target: T1, recombinant hIL1RAP Domain1+2+3 (aa21-367) (human, UniProt Q9NPH3 21-367); assay: BLI (BLItz), antibody on Protein A biosensor, hIL1RAP (21-367) in solution
T1 construct: Numbering on Uniprot Q9NPH3
T1 sequence (looked up): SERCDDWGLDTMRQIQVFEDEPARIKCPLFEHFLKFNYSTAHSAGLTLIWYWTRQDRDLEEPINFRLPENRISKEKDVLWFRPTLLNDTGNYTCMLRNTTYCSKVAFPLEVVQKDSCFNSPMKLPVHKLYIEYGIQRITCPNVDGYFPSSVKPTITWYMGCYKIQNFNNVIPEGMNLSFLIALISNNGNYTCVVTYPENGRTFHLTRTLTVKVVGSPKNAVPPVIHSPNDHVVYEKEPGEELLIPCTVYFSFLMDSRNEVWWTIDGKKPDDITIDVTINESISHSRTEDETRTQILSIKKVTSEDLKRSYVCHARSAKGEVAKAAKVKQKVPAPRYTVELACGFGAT
Procedure: (§1) Affinity measurements were done on BLItz™ Label-Free Protein Analysis System from ForteBio, using the Basic Kinetics module in the BLItz Pro 1.3.1.3 software from Molecular Devices. Protein A biosensors were hydrated in blocking buffer (PBS, 0.5% BSA, 0.05% Tween 20, pH 7.4) for minimum 10 min at room temperature before coating. Protein A biosensors were coated with antibodies by dipping the biosensors in 200 μl of antibody solution (10 μg/ml in blocking buffer) for 30 min at room temperature. The sensors were then incubated in 200 μl blocking buffer for at least 10 min before use. […] The baseline was made in blocking buffer with a duration time of 30 sec. Association was made for 120 sec in hIL1RAP followed by 120 sec dissociation in blocking buffer.
Affinity measurement results are shown in Table 4 for chimeric 48D2, as well as for humanized 48D2 variant VH5:VL4 (see Example 11) and for humanized and de-immunized 48D2 variant VH5.GL:VL4 (see Example 13). kₐ is the association rate constant, for characterization of the antibody binding to the target, kd is the dissociation rate constant, for characterization of the antibody dissociation from the target, and KD is the equilibrium dissociation constant between the antibody and its antigen, the ratio of kd/kₐ. […] The lower the KD value (lower concentration), the higher the affinity.

rat IL1RAP [2] = biological target: T2, rat IL1RAP (rat (Rattus norvegicus), UniProt Q63621 21-367, limits assumed); assay: indirect ELISA on coated IL1RAP, goat anti-human antibody-alkaline phosphatase, absorbance at 405 nm
T2 construct: also called rnIL1RAP
T2 sequence (looked up): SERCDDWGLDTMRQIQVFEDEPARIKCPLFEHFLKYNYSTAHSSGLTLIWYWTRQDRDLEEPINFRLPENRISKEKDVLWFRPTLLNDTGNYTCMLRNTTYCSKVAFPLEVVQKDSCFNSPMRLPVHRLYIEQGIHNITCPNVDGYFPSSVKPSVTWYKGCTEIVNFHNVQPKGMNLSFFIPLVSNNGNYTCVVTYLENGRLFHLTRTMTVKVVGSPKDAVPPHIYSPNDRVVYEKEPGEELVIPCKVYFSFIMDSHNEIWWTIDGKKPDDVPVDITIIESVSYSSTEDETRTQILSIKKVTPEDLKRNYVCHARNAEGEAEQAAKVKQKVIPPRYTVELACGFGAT
Procedure: (§2) Microtiter plate wells were coated with IL1RAP orthologs (Mus musculus, Rattus norvegicus, Macaca fascicularis (Mf, synonymous to cynomolgus monkey), Oryctolagus cuniculus, Canis lupus familiaris, Sus scrofa) and incubated for 1 hour at 37° C. Plates were washed followed by a blocking step. After 1 hour incubation at room temperature on agitation, the plates were washed again. The antibody was diluted in fourfold serial dilution, ranging from 4000 ng/ml to 0.24 ng/ml, in ELISA blocking solution, and then transferred to the ELISA plate. Plates were incubated at 37° C. in 30 min on agitation and then washed. Goat Anti-Human antibody conjugated to Alkaline Phosphatase was added and incubated 30 min at 37° C. on agitation. The plates were washed followed by addition of substrate (4-Nitrophenyl phosphate disodium salt hexahydrate). The plates were thereafter incubated at room temperature on agitation and absorbance at 405 nm measured consecutively for 50 min. Absorbance at 0 min was taken as background signal.
(§3) The antibody is added in increasing concentrations and absorbance at 405 nm is used to detect binding of the antibody to IL1RAP orthologues. 48D2 is cross reactive to IL1RAP from human, cynomolgus monkey (cyno) and pig, but has no cross reactivity to IL1RAP from mouse, rat, rabbit or dog (FIG. 14 and Table 7).

mouse IL1RAP [3] = biological target: T3, mouse IL1RAP (mouse (Mus musculus), UniProt Q61730 21-367, limits assumed); assay: as above
T3 construct: Coated ortholog in the cross reactivity ELISA; also called mIL1RAP; murine IL1RAP
T3 sequence (looked up): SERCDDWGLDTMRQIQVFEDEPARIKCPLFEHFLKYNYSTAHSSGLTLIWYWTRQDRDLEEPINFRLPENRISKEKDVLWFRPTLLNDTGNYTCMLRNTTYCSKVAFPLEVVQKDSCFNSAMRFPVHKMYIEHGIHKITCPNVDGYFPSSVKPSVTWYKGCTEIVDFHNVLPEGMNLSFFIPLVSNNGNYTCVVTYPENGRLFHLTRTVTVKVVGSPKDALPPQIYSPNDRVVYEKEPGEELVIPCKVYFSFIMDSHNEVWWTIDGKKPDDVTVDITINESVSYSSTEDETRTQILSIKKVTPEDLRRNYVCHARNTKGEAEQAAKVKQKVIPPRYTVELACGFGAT
Procedure: as §2, §3

[4] = biological target: T4, human IL1RAP on the cell surface (human, UniProt Q9NPH3 21-570); assay: flow cytometry on SKMEL-5 cells, Alexa488 anti-human IgG secondary
T4 construct: whole, on cells; Endogenous IL1RAP of human cell lines and blood cells; also called cell membrane IL1RAP; IL1RAP-expressing SKMEL-5 cells
T4 sequence (looked up): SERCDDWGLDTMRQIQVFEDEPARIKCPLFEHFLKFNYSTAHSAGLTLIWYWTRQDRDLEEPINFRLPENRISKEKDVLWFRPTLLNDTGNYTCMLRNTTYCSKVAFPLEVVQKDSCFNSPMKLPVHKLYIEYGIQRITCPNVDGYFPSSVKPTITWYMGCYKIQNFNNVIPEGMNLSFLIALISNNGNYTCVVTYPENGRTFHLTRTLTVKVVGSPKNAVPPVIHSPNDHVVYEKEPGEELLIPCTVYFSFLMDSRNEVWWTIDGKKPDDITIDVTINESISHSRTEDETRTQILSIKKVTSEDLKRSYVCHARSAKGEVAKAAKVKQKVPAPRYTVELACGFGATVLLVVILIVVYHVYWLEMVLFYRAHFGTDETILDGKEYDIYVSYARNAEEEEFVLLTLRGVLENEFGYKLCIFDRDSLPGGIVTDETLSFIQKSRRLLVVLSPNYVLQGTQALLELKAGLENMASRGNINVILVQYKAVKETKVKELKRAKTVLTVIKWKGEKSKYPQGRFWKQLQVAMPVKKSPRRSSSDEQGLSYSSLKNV
Procedure: FIG. 12: Dose-dependent binding of chimeric 48D2 to cell membrane IL1RAP Chimeric 48D2 or hIgG1 (hIg=human immunoglobulin) isotype control antibody was added to SKMEL-5 cells in increasing concentrations and extracellular binding was analyzed by flow cytometry. Chimeric 48D2 specifically bound IL1RAP on the cell membrane in a dose-dependent manner and with higher mean fluorescent intensity (MFI) compared to the hIgG1 isotype control antibody.
The malignant melanoma (or malign melanoma) cell line SKMEL-5, which expresses IL1RAP on the cell surface, was used for the analysis. SKMEL-5 cells were cultured according to standard procedures. 5×10⁴ SKMEL-5 cells were blocked with human Fc block and then stained with 8-step serial dilutions (100 μg/ml-0.03 μg/ml) of chimeric 48D2 or isotype control antibody. Following secondary staining using Alexa488-conjugated anti-human IgG antibody, 10000 cells/sample were analyzed on a CytoFlex (Beckman Coulter). HTB183 cells expressing low levels of surface IL1RAP were used as negative controls.

[5] = biological target: T4, human IL1RAP on the cell surface; assay: cell-based or functional assay
[6] = biological target: T4, human IL1RAP on the cell surface; assay: cell-based or functional assay; remark: listed apart in the source
rat IL1RAP [7] = biological target: T2, rat IL1RAP; assay: indirect ELISA on coated IL1RAP, goat anti-human antibody-alkaline phosphatase, absorbance at 405 nm; remark: listed apart in the source
Procedure: as §2
(§4) The antibody is added in increasing concentrations and absorbance at 405 nm is used to detect binding to IL1RAP. As for chimeric 48D2, the humanized and de-immunized variants h48D2 VH5.GL:VL4 and h48D2 VH5.GL:VL5.GL were cross reactive to IL1RAP from cynomolgus monkey (cyno) and pig, but have no cross reactivity to IL1RAP from mouse, rat, rabbit or dog (FIG. 18 and Table 20).

mouse IL1RAP [8] = biological target: T3, mouse IL1RAP; assay: as above; remark: listed apart in the source
Procedure: as §2, §4

[9] = biological target: T1, recombinant hIL1RAP Domain1+2+3 …; assay: bio-layer interferometry, human IL1RAP
Procedure: as §1
KD values for affinity towards human IL1RAP are shown in Table 17 for the de-immunized h48D2 variants. Affinity was measured using bio-layer interferometry. […] See also Table 4 for a direct comparison of 48D2, humanized 48D2, and de-immunized h48D2.

B1: chimeric 48D2 (antibody, V domains shown, not shown: a dimerising Fc or GST)
VH: QEQLEESGGGLVKPGGSLTLTCTVSGPSLSHFDITWVRQAPGSGLEWIGTISPGVSTYYASWAKSRSTITSNTNLNTVTLKMTSLTAADTATYFCARGGVGSSWKAFDLWGPGTLVTISS
VL: APVLTQTPASVEVAVGGTVTIKCQASESISTALAWYQQKPGQPPKLLIYKASTLPSGVSSRFKGSGSGTEFALTISDLECDDAATYYCQQGFSSGNVHNAFGGGTEVVVKR
notes: Chimeric rabbit/human IgG1, expressed in CHO cells; also called ch48D2; 48D2 chimeric (ch) rabbit/human anti-human IL1RAP
A Kd [1] of 2.67 nM, a koff [1] of 0.000174 s⁻¹ and a kon [1] of 65200 M⁻¹ s⁻¹ were found for B1 in this work. The binding result (rat IL1RAP [2]) was “no binding (tested: 4000 ng/mL)”, the binding result (mouse IL1RAP [3]) was “no binding (tested: 4000 ng/mL)” and the “EC50 (read off the curve)” value [4] was ~6 nM. The “IC50 of IL-1α signaling (HEK-Blue assay)” value [5] was 1.92 nM, the “IC50 of IL-1β signaling (HEK-Blue assay)” value [5] was 0.7 nM and the “IC50 of IL-33 signaling (HEK-Blue assay)” value [5] was 2.92 nM. The “IC50 of IL-36α signaling (HEK-Blue assay)” value [5] was 0.0083 nM, the “IC50 of IL-36β signaling (HEK-Blue assay)” value [5] was 0.0081 nM and the “IC50 of IL-36γ signaling (HEK-Blue assay)” value [5] was 0.0111 nM.

B2: h48D2 VH5.GL:VL5.GL (antibody, human IgG1, kappa, L234A L235A)
heavy: not shown
light: DIQMTQSPSTLSASVGDRVTITCQASESISTALAWYQQKPGQPPKLLIYKASTLPSGVPSRFSGSGSGTEFTLTISDLESDDAATYYCQQGFSSGNVHNAFGGGTEVVVKRTVAAPSVFIFPPSDEQLKSGTASVVCLLNNFYPREAKVQWKVDNALQSGNSQESVTEQDSKDSTYSLSSTLTLSKADYEKHKVYACEVTHQGLSSPVTKSFNRGEC
notes: Humanized and de-immunized; also called VL5.GL:VH5.GL
With B2 the “IC50 of IL-1α signaling (HEK-Blue assay)” value [6] was 0.24 nM, the “IC50 of IL-1β signaling (HEK-Blue assay)” value [6] was 0.13 nM and the “IC50 of IL-33 signaling (HEK-Blue assay)” value [6] was 3.56 nM. For the same binder, the “IC50 of IL-36α signaling (HEK-Blue assay)” value [6] was 0.174 nM, the “IC50 of IL-36β signaling (HEK-Blue assay)” value [6] was 0.185 nM and the “IC50 of IL-36γ signaling (HEK-Blue assay)” value [6] was 0.244 nM. For the same binder, the binding result (rat IL1RAP [7]) was “no binding (tested: 4000 ng/mL)”, the binding result (mouse IL1RAP [8]) was “no binding (tested: 4000 ng/mL)” and the Kd [9] was 1.47 nM.

Source: patent publication US20220242950A1 (CANTARGIA, published 2022)
